41 sequences from the nanobody polyreactivity screen of Harvey et al. (2022) can be followed below.

The series can be described thus: yeast display, Sf9 membrane polyspecificity reagent, FACS + sequencing; frameworks hold sequencing errors. In a few lines: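 Sorting gates, low and high (top ~1%), were placed on anti-HA fluorescence to track expression and on streptavidin fluorescence to track reagent binding. A clone's polyreactivity label is taken from the gate it came out of. The reagent was 10% biotinylated, detergent-solubilized Sf9 membrane, applied for 1 hour at 4 °C to galactose-induced yeast display cells.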
With “QVQLVESGVGLVQAGGSLRLSCAASGYTLDNYAMGWYRQAPGKERELVAGITFSGGSTFYADSVKGRFTISRDNAKNTVYLQMNSLKPEDTAVYYCAADAEFQADHKYGYWGQGTQVTVSS”, the “polyreactivity (PSR sort gate)” value is given as “low polyreactivity”.
Consider “QVQLVESGVGLVQAGGSLRLSCAPSGRIFGTYAMVWYRQAPGKERELVASITDRGDSTYADSVKGRFTISRDNAKNTVYLQMNSLKPEDTAVYYCAADGWWHNFYPGTGLDYWGQGTQVTVSS”, for which the “polyreactivity (PSR sort gate)” value is given as “low polyreactivity”.
For the sequence “QVQLVESGVGLVQAGGSLSITCAASGRTFAGNSMGSYRQAPGKERELVAAISQGGGSTYYADSVKGRFTISRDNAKNTVYLQMNSRKAEDTAVYYCAAEIPRRWASFATQWYDYWGLGTQVTVSS”, the “polyreactivity (PSR sort gate)” value was “low polyreactivity”.
“QVQLVESGVGLVQAGGSVRLSCAASGFTFGYYAMGWYRQAPGKERELVASISSVDNTYYADSVKGRFTISRDNAKNTVYLQMNSLKPEDTAVYYCAARYRDYFVRGGYWGQGTQVTVSS”: the “polyreactivity (PSR sort gate)” value is listed as “high polyreactivity”.
In the case of “QVQLVESGVGLVQAGGSVRLSCAASGSIFSINAMGWYRQAPGKERELVAAISASGGSTYYADSVKGRFTISRDNAKNTVYLQMNSLKPEDTAVYYCAVYTHDRFSRYDQGDYWGQATQVTVSS” it was “low polyreactivity”.
Next, “QVQLVESGVGLVQAGGTLRISCAASGSTLPGYAMGWYRPAPGKERELVAAITSRGGTTYYADSVKGRFTISRDNAKNTVYLQMNSLKPEDTAVYYCAAEVYYRSRVYPYYYSYDYWGQGTQVTVSS”: “high polyreactivity”; “QVQLVESGVGLVQAGGTLRLSCAASGIIISRYTMGWYRQAPGKERELVAAITSSGITYYADSVKGRFTISRDNAKNTVYLQLNSLKPEDTAVYYCARETYGDYVHYDYWGLGTQVTVSS”: “low polyreactivity”.
In the case of “QVQLVESGVGLVQAGRRLRLSCAASGFIFAWNGMGWYRKAPGKERELVAAISWSGGSTYYAVSVKGRFTISRDNEKNTVYLLMNTLKPEETAVYYCYRSWGSRPGSRLEYWGQGTQVTVSS” it was “high polyreactivity”.
Regarding “QVQLVESGVGLVQAGRSLRLSCAASGRTFVQYAMGWYRQAPGKERELVARISRRGGSTYYADSVKGRFTISRDKAKNSVYLQMNSLKPEDTAVYYFAADAYPYWYDYWGQGTQVTVSS”, the “polyreactivity (PSR sort gate)” value is “high polyreactivity”.
With “QVQLVESGVGLVQAGVILRLSCAASGRTFRRNAMGWYRHAPGKERELVAAISWRGGSTYYADSVKGRFTISRDNAKNTVYLQLNSMKPEDTAVYYFAAGFESYDYWGQGTQVTVSS”, the “polyreactivity (PSR sort gate)” value was “high polyreactivity”.
Take “QVQLVESGVRLLQAGGSLRLSCAASGITSDDNTMGWYRQAPGKERELVARIRRTGGGTYYADSVKGRFTISRDNAKNTVYLQINSLKPEDSAVYYCAAVPSWGYRFNRVPYLWVDYWGQGTQVTVSS”: the “polyreactivity (PSR sort gate)” value is recorded as “low polyreactivity”.
In the case of “QVQLVESGVRLVQAGGSLLLSCAASGFTFHKNDMGWYRQAPGKERELVATISKSGGSTYYADSVKGRFTISRDNAMNTVYLQMNSLKPEDTAVYYCARRYRDYGRYGYWGQGTQVTVSS” it was “high polyreactivity”; in that of “QVQLVESGVRLVQAGGSLRLSCAASGSIFAKYTMGWYRPAPGKERELVAAITRSGTSTRYADSVKGRFTISRDNAKNTVYLQLNSLKPEDTAVYYCAASLYSWGQGTQVTVSS”, “high polyreactivity”; in that of “QVQLVESGVVLVQAGGSLRLSCAASGRIFRYYVMGWYRQAPGKERELVAAITNDGGNTNYADSVKGRFTISRDNEKNTVYLQMNSLKPEDTAVYYCNADRTHDRNPYTYATFDYWGQGTQVTVSS”, “low polyreactivity”.
In the case of “QVQLVESLGGLVQAGGRLRLSSAASGLIFPRNAMGWYRQAPGKERELVAVISRSGTTTYYADSVKGRFTISRDNAKKTVYFQMNSLIPEDTAVYYCASAPSHVYRARFYYWGQGTQVTVSS”, the “polyreactivity (PSR sort gate)” value is “high polyreactivity”.
On to “QVQLVESRGCLVQAGGSLRLSCSASGYIFVYYAMGWYRQAPGKEWELVAAISRGGSTYYADSVKGRFTISRDNAKNTVYLQMNSLKPEDTAVYYCNKVLPYGREYGYCGQGTQVTVSS”, for which the “polyreactivity (PSR sort gate)” value is “high polyreactivity”.
As to “QVQLVESRGGIVQAGGSLRLSCAASGRIFGWYAMGWYRQAPGKERELVAAITSSVGRTYYADSVKGRFTISRDNAKNTVYLQMNSLKPEDTAVYYCAKDLYTYYYFEYDYWGQGTQVTVSS”, the “polyreactivity (PSR sort gate)” value is on record as “low polyreactivity”.
In the case of “QVQLVESRGGLVLAGGSLRLSCAASGSIFPSYAMGWYRQAPGKERELVASISYRGGSTYYADSVKGRFTISRDNAKNTVYLQMNSLKPEDTAVYYCAATKERYYGWSRLTGYYRGNYWGQGTQVTVSS” it was “high polyreactivity”.
Next, “QVQLVESRGGLVPAGGSLRLSCAASGSTVRDYTMGRYRQAPGKEREVGAAITRRSASTYYADSVKGRFTISRDNAKNTVYLQLNSLKPEDTAVYYCAVRTNGPFEYWGQGTQVTVSS”: “high polyreactivity”; “QVQLVESRGGLVQAGGSLGLSCAASGSTFGYYAMGWYRQAPGKERELVAGISTGGSTYYAYSVKGRFTISRDNAKNTVYFQINSLKPDDTAVYYCAATRYNRWPIKFDYWGQGTQVTVSS”: “high polyreactivity”.
Regarding “QVQLVESRGGLVQAGGSLRLSCAASGFIFTRYVMGWYRQAPGKERELVAGISTRGARTYYADSVKGRFTISRDNAKNTVYLQIHSLTPEDTAVYYCNKDWSRGWNYEYDYWGQGTQVTVSS”, the “polyreactivity (PSR sort gate)” value is recorded as “high polyreactivity”.
Next, “QVQLVESRGGLVQAGGSLRLSCAASGFILVIYAMGWYRQAPRKERELVAAITSDGSTNYADSVKGRFTISRDNAKNSVYLQMNSLKPEDTAVYYCAADAVNPLDYWGLGTQVTVSS”: “low polyreactivity”; “QVQLVESRGGLVQAGGSLRLSCAASGFTFGNYAMGWYRQAPGKEREMVAAISWSGGSTYNADSVKGRFTISRDNAKKTVYLQMNSLKPEDTAVYYCNAIRGSLWESDYWGQGTQVTVSS”: “high polyreactivity”.
In the case of “QVQLVESRGGLVQAGGSLRLSCAASGLIFLHNAMGWYRQAPGKERELVAAIRDGDSTNYADSVKGRFTISRDNAKNTVYLQMNSLKPEDTAVYYCAKDPTLVAYAPGRYDYWGQGTQVTVSS” it was “low polyreactivity”.
Consider “QVQLVESRGGLVQAGGSLRLSCAASGLNFSYYAMGWYRQAPGKERELVAAIDWNSGSTYYADSVKGRFTISRDNAKNTVYLQMNSLKPEDTAVYYCAAYGSFWYARFGYWGQGTQVTVSS”, for which the “polyreactivity (PSR sort gate)” value was “low polyreactivity”.
In the case of “QVQLVESRGGLVQAGGSLRLSCAASGRIFAYYAKGWYRPAPGKERELVAAIRGSGGSTYYAESVKGRFTISRDNAKNTVYLQMNSLKPEDTAVYYCAARTQPKKFYYWGQGTQVTVSS” it was “high polyreactivity”; in that of “QVQLVESRGGLVQAGGSLRLSCAASGRIFLRNAMVWYRQAPGKERELVASIDRSGGSTYYADSVKGRFTISRDNAKNTVYLQMNSLKPEDTAVYYCAAAYWYLYYYWGQGTQVTVAS”, “low polyreactivity”; in that of “QVQLVESRGGLVQAGGSLRLSCAASGRIFRYYAMGWYRQAPGKERELVAAITWRGGNTRYADSVKGRFTISRDNAKNTVYLPMNSLKTEDTAVYYCAARGQSAYSIWSYYYWGQGTQVTVSS”, “high polyreactivity”.
In the case of “QVQLVESRGGLVQAGGSLRLSCAASGRIFWVNAMGWYRQAPGKERELVAVISRGGSTTYADSVKGRFTISRDNAKNTVYLQMNSLKPEDTAVYYCAADAYRHAFLYYGYDYWGQGTQVTVSS” it was “low polyreactivity”; in that of “QVQLVESRGGLVQAGGSLRLSCAASGRIYNYYEMGWYRQAHGKESELVAAITWRGGTTYYADSVKGRFTISRDNAKNTVYLQMNSLKPEDTAVYYCATTPRSYRFPPPVGYGYWGQGTQVTVSS”, “high polyreactivity”.
In the case of “QVQLVESRGGLVQAGGSLRLSCAASGRTLTAYAMGWYRQAPGKERELVDDISFGGGTTYYADSVKGRFTISSDNAKNTVYLQMNSLKPEDTAVYYCAAANYVDIWDFYWFDDYWGQGTQVTVSS” it was “high polyreactivity”.
On to “QVQLVESRGGLVQAGGSLRLSCAASGRTVRRYAMGWYRQAAGKARELVASISRGSSTNYADSVKGRFTSSRDNAKNTGYLQMNSLKPEHTAVYYCAALGWSARYRYDYWGQGTQVTVSS”, for which the “polyreactivity (PSR sort gate)” value was “high polyreactivity”.
Next, “QVQLVESRGGLVQAGGSLRLSCAASGSIFSYYPMGWYRQAPGKERELVAAISSRGGSTYYADSVKGRFTISRDNAKNTFYLQMNCLKPEDTAVYYCDDEWTSWFGVTYDYWGQGTQVTVSS”: “high polyreactivity”.
In the case of “QVQLVESRGGLVQAGGSLRLSCAASGSNFTLYAMGWYRQAPGKERELGATITISGGGTYYADSVKGRFTISRDNAKNTVYLQMNSLKPEDTAVYYCAVKSIVRRKGYTYYRYDYWGQGTQVTVSS” it was “high polyreactivity”; in that of “QVQLVESRGGLVQAGGSLRLSCAASGSTFFHYAMGWYRQAPGKDRELVAAIDSNGGSTYYADSVKGRFTISRDNAKNTVYLPMNSLKPEDTAVYYCAADDLAEFEYDYWGQGTQVTVSS”, “low polyreactivity”.
As to “QVQLVESRGGLVQAGGSLRLSCAASGSTFGWYAMGWYRQAPGKERELVASITSGGRTNYADSVKGRFTISRDNAKITVYLQMNSLKPEDTAVYYCAKRVYGSYSLYDYWGQGTQVNVSS”, the “polyreactivity (PSR sort gate)” value was “low polyreactivity”.
In the case of “QVQLVESRGGLVQAGGSLRLSCAASGSTFKRYTMGWYRQAPGKESELVAAISTSSGSTYYADCVKGRFTISRDNAKNTVYLQMNSLKPDDSAVYYCAAVRHRQSYPKYNYWGQGTQVTVSS” it was “high polyreactivity”; in that of “QVQLVESRGGLVQAGGSLRLSCAASGTTINFYPMGWYRQAPGKERELVAAIRVSSGSTYYADSVKGRFTISRDNAKNNVYLQMNSLKPEDTAVYYCAAFLKDRSPRDGYDYWGQGSQVTVSS”, “high polyreactivity”; in that of “QVQLVESRGGLVQAGGSLRLSCAASGYIINAYARGWYRQAPGKERELVAAISWSSDSTYYADSVKGRFTISRDIAKNTVYLQMNSLKPEVTAVYYCAAPYITPYGTYVFSSDYWGQGTQVTVSS”, “low polyreactivity”.
Next, “QVQLVESRGGLVQAGGSLRLSCAASGYILWRYAMGWYRQAPGKERELVASISSGVSTNYADSVKGRFTISRDNAKNTVYLQMYSLKPEDTAVYYCKTGRWLLGSMEYWGQGTEVTVSS”: “low polyreactivity”; “QVQLVESRGGLVQAGGSLRLSCAASGYTFYGYAMGWYRQAPGKERELVAAISGSGGSTYYADSVKGRFTISRDNAKNTVYLQMNSLKREDTAVYYCNKARYAIYRGDGYDYWGQGTQVTVSS”: “high polyreactivity”.
